Molecular target: HLA-A*02:01 (Homo sapiens, UniProt P04439, D140Y/D185E/D98H/E176V/E277Q/G131W/G231S/I119V/I121R/I166T/I218V/L300P/L318F/N151K/N90K/P208A/P217A/Q86G/Q94H/R138H/R169H/T345S)
Assay: MHC binding assay (UV-ligand exchange, beta2m ELISA)
Conditions: binding to HLA-A*02:01 ranged by peptide exchange yield (UV-ligand exchange, β2m ELISA)
Method in brief: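 Stabilised complexes were quantified via their β2m light chain: 100-fold-diluted monomers bound to streptavidin plates, then HRP anti-β2m at 2 ug/ml for 1 h at 37° C., TMB read at 450 nm. The value is the yield of UV-induced exchange of a photocleavable peptide for the candidate.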

Substance	Peptide exchange
310 (FLVDTPLARA; listed as Homo sapiens) [compound 310]	“++++” (≥75% = ++++)
311 (RLYTGMHTV; listed as Homo sapiens) [compound 311]	“+++” (≥50 = +++)
313 (VLFDDELLMV; listed as Homo sapiens) [compound 313]	“+++” (≥50 = +++)
314 (ALIAEGIALV; listed as Homo sapiens) [compound 314]	“+++” (≥50 = +++)
315 (YLQDVVEQA; listed as Homo sapiens) [compound 315]	“+++” (≥50 = +++)
316 (ILLERLWYV; listed as Homo sapiens) [compound 316]	“+++” (≥50 = +++)
318 (GLINTGVLSV; listed as Homo sapiens) [compound 318]	“++” (≥20% = ++)
320 (KMFEFVEPLL; listed as Homo sapiens) [compound 320]	“++++” (≥75% = ++++)
321 (GLFEDVTQPGILL; listed as Homo sapiens) [compound 321]	“++++” (≥75% = ++++)
322 (TLMTSLPAL; listed as Homo sapiens) [compound 322]	“+++” (≥50 = +++)
325 (FIMPATVADATAV; listed as Homo sapiens) [compound 325]	“+++” (≥50 = +++)
327 (GLAPFTEGISFV; listed as Homo sapiens) [compound 327]	“+++” (≥50 = +++)
328 (ALNDQVFEI; listed as Homo sapiens) [compound 328]	“+++” (≥50 = +++)
329 (FLVTLNNVEV; listed as Homo sapiens) [compound 329]	“++++” (≥75% = ++++)
330 (QLALKVEGV; listed as Homo sapiens) [compound 330]	“+++” (≥50 = +++)
331 (KVDTVWVNV; listed as Homo sapiens) [compound 331]	“+++” (≥50 = +++)
332 (YLISELEAA; listed as Homo sapiens) [compound 332]	“+++” (≥50 = +++)
334 (TLTKVLVAL; listed as Homo sapiens) [compound 334]	“+++” (≥50 = +++)
335 (YSLSSVVTV; listed as Homo sapiens) [compound 335]	“+++” (≥50 = +++)
336 (ILLTAIVQV; listed as Homo sapiens) [compound 336]	“+++” (≥50 = +++)
341 (SQIALNEKLVNL; listed as Homo sapiens) [compound 341]	“+++” (≥50 = +++)
342 (HIYDKVMTV; listed as Homo sapiens) [compound 342]	“+++” (≥50 = +++)

Now from value to substance:

Peptide exchange	Substance
“+++” (≥50 = +++)	312 (IISDLTIAL; listed as Homo sapiens) [compound 312]
“+++” (≥50 = +++)	317 (SLAALVVHV; listed as Homo sapiens) [compound 317]
“+++” (≥50 = +++)	324 (FLYDEIEAEV; listed as Homo sapiens) [compound 324]
“+++” (≥50 = +++)	326 (FLPEALDFV; listed as Homo sapiens) [compound 326]
“++” (≥20% = ++)	333 (FLPDANSSV; listed as Homo sapiens) [compound 333]
“++++” (≥75% = ++++)	337 (HLLSELEAAPYL; listed as Homo sapiens) [compound 337]
“++++” (≥75% = ++++)	339 (GLWEIENNPTVKA; listed as Homo sapiens) [compound 339]
“++++” (≥75% = ++++)	340 (ALLSMTFPL; listed as Homo sapiens) [compound 340]
“+++” (≥50 = +++)	343 (SLLEVNEESTV; listed as Homo sapiens) [compound 343]
“+++” (≥50 = +++)	344 (YLQDQHLLLTV; listed as Homo sapiens) [compound 344]
